The values that follow come from the DeepSol protein solubility set.

This data set can be described thus: soluble on expression in E. coli; label from the status in PepcDB or PDB records.
Consider “MGSDKIHHHHHHAAYGEDNHKKERHPDDRKINVGIRGGFNSSMFLVSDLKIKDVTIDEIQNNYKIGYFGALFMRLNMKRHFIQPEISYNISRCEISFDKLGSQHPDIEPDYASVSSTIHSIDFPLLYGYHVVKQGPYTMSLFAGPKLRYLWNKKNKITFENFDQQGIHEKLYPFNVSAVIGVSVNISRIFFDFRYEQGLHNLSKSVTYDNIDMEGRPEVSNITFRRRDNVLSFSLGVIF”, for which the “soluble on expression in E. coli” value was “not soluble”.

As for “MGSDKIHHHHHHMTQLIMRPRPGKIKLGLKASQAPAQLMDRLQYRPEVFEFFTSATDFEPEAFQTLKTAVQFVKTTVTEQIVIHHPMSYQGVHLDQLLDPHREAAAYQFLQTSTAQLLALATELDVKVLVHGGYGSDSGRLIDEYESLQVARDVVFERLDNLVRQASGHVVIENGVTASFMYGDPQLDERIIQHHYPLVCDLSHVFIALHGDMELTMLALKRLAPLIQHYHLVDSMGTRHDSLPLGQGLIDWQRVLPVLNPHATMIYEVPDETDATCANMLSSYHYLRALELRSIEGGQAND”, the “soluble on expression in E. coli” value is listed as “not soluble”.

For “MGSDKIHHHHHHVLKELNQLMDHIERHLTEELSGMDIVRITGVSEYHFRRMFSYMSGMTLNEYIRNRRLSQANINLVNQHSVTEVAYEYGYQSIEGFSRAFREWSGFLPSEVIKNKIQKSFPRFTFYIDIKGGVSMEFKIERKSQFHVVGVSKRVPIQFEGVNHSIVELAQSITPQQRQEMQQLADLYPETVLNVSFDFDEGYLEEQGSLTHMIGFATSRQNPYGDLEQITIEDSLWAVFPNTGPFPQMLQETMAKTYAEWLPTSGYELVDLPSILFTNHEDDSLNVYSEVWVPVKEKTTS”, the “soluble on expression in E. coli” value is “not soluble”.

Consider “MGSDKIHHHHHHADIETCTVPGDVLNRDPIIGNDQITLPLKKGTNISKLAPEFTLTPGATINPESGVVRDFSTPQKYVVTSEDGKWKKEYEVTALFSGIPTSYHFENALPVKDKKGNILYYNFQESDAIGNILNWANANEGFNYTGVQAKPEEYPTSPAPDGVQGNCVKLTTKDTGSLGALLKMYIAAGNLFMGSFTLDIGNVLRATKFGVPFTHIPTSFKGYYKYKAGEVFTVKGEPVSGRKDICDIYAVFYETDDKVKSLDGTNVFTSPNLISIARISNAKETEQWTEFNLPFITLPGKTVDSQKLEDGKYNVAIVFSSSIKGDLFEGAAGSTLYIDEVELSYRDIK”, for which the “soluble on expression in E. coli” value was “not soluble”.

“MKYTQSFCFVSVIVLSSSVHLHGQNNKMNVLLIIADDMRPELGCYGIEDIVTPRLDSLARYATVFQNAYCNIPVSGASRASLFTGMYPRYPNRFTAFDASAEKDCPEALSLPECFKKNGYYVVSNGKVFHNITDHADSWSEAPWRVHPDGYGKDWAEYNKWELWQNEESSRYVHPKTLRGPFCESADVADTTYIDGRVAQKTIADLRRLHKKEKPFFLACGFWKPHLPFNAPKKYWDLYRREEIHLAQNPYRPKALPKQVTSSGEIRGYGKFVTTKDETFQREAKHGYYACVSYIDAQIGLILDELDRLGLSENTIVVILGDHGWHLGEHGFWGKHNLMNHATRAPLIVRVPHCRGGKAKGIVEFVDIYPTLCELCGVPMPKDQLQGKSFVPILQDSGKKTKQYAFIQWKGGYNIVSEQYSSTIWLQGDSVVARMIFDRQLDASENENKVHCPYLSRERDKLEAQIKIRKSQLLEHHHHHH”: the “soluble on expression in E. coli” value is “not soluble”.

As to “MRIELSIKADDSLVSFSHQHLLVGTLQKWLGENDMHGKSISYSFSRLNGGKLVSELNSILFADWANMFVSAHDPELIRRMLAGIRQDPEMFKSLCVREVTVIEDPDMTDREIFFPASPILLKRWREDNGFDHIVYTDEAANALLTENLRKKLQAVGIDDPTATASFVPDQGKAKVMLIDYRGVKNKASWCPIRIIGNAETKLFAWNAGIGNSTGIGFGAIK”, the “soluble on expression in E. coli” value was “not soluble”.

Turning to “NKSIRMTPSQVAFEIRGTLLPGEVFAICGSCDALGNWNPQNAVALLPENDTGESMLWKATIVLSRGVSVQYRYFKGYFLEPKTIGGPCQVIVHKWETHLQPRSITPLESEIIIDDGQFGIHNGVETLDSGWLTCQTEIRLRLHYSEKPPVSITKKKLKKSRFRVKLTLEGLEEDDDDRVSPTVLHKMSNSLEISLISDNEFKCRHSQPECGYGLQPDRWTEYSIQTMEPDNLELIFDFFEEDLSEHVVQGDALPGHVGTACLLSSTIAESGKSAGILTLPIMSRNSRKTIGKVRVDYIIIKPLPGYSCDMKSSFSKYWKPRIPLDVGHRGAGNSTTTAQLAKVQENTIASLRNAASHGAAFVEFDVHLSKDFVPVVYHDLTCCLTMKKKFDADPVELFEIPVKELTFDQLQLLKLTHVTALKSKDRKESVVQEENSFSENQPFPSLKMVLESLPEDVGFNIEIKWICQQRDGMWDGNLSTYFDMNLFLDIILKTVLENSGKRRIVFSSFDADICTMVRQKQNKYPILFLTQGKSEIYPELMDLRSRTTPIAMSFAQFENLLGINVHTEDLLRNPSYIQEAKAKGLVIFCWGDDTNDPENRRKLKELGVNGLIYDRIYDWMPEQPNIFQVEQLERLKQELPELKSCLCPTVSRFVPSSLCGESDIHVDANGIDNVENA”, the “soluble on expression in E. coli” value is “soluble”.

As to “MRDLSHALGSGEPYPGDPPAAVTPHATMAADGYRVSAVACSTHSGTHIDAPSHLLADGRSLDAFDVSAFRFDAHVVDCTGYGPEDAIPVDRVPALDDHDMVVFNTGTAADWGRPEYYEHPHLSVAAAERCADAGCAVAVDAPSVDPTRTAPAGESSDAAAYPAHRALLGAGALIVENVTNLDGLPERVPVQAYPLPVAADGAPARVIAAPLEHHHHHH”, the “soluble on expression in E. coli” value is given as “soluble”.

As to “MKTPDQKSCETAESSNTKYSPNLVIDGAAVSNEDVAGKVADLEYAHSFPDLVLNVEKHDDEYIKSFLLQRNWYHGMMFGKAAEKLLKWESSYIVRRSMGPTHKFLCITARVEDKYFHFQFNWNSEGWSCPILYEKFPRIPVKRYEHIYQLLDAWSLVVNQLVPISRCSMILQHSSIALENQLGRGAFGEVIKAKYVPMGATVPTEVAVKRLIGDAKRPQLVDFCNEANIMTLLEHKNIVALYGFASLQQPIMLVIEFVPGGDLRKYLQRTPNVPSKQIIKFAMEIASGMKHLSSKNVIHRDLAARNCLITKELNVKISDFGLSVNESETKMKSLKKAPIRWLSPETFSKGLFNEKTDVWSYGVLLTELMTRCAHDPLWPKNLKQVQKWIKESEHPHKIEDGDPSELKEIVDACCAKIPSVRINFREVKNRLAMLQQKKKTLELDAQKPMSPNPAIEKKKSEDRRNNMDRRNKTNRKSHTSTDRTNSNNTLTRKKSRDAGKNDRSNERKNKAKGGNLSVDGTNKSSRRKEQKGAVGISQEMVTK”, the “soluble on expression in E. coli” value is on record as “not soluble”.

As to “MSESAFSNRIVQSLLDTDFYKLTMMQAVLHNYPNVDVEWEFRCRNGEDLRPYLGEIQHQIELLCELSLSPEHLVFLERITFMKPDFLRFLGLFRFNTRYVKTSIENDELCIRLHGPWLHVILFEVPLLAIVSEVRNRHRYPDTLLSQARDRLYDKFEWLTVNATPDELAELKVADFGTRRRFSYRVQEEVLNVLKLDFPGQLVGTSNVHLARQLDLKPLGTMAHEWIMAHQQLGPRLIDSQIAALDCWVREYRGLLGIALTDCITTDAFLNDFDLYFAKLFDGLRHDSGDPVKWAEKCISHYQKLGIDPMSKTLVFSDGLNLPKALDIFRALRGRINVSFGIGTNLTADIPGIAPMNMVLKMTACAGQAVAKISDESGKTQCKDPNFVAYLRHVFKVPDLPSPAKPALEHHHHHH”, the “soluble on expression in E. coli” value is listed as “not soluble”.

Consider “MGSDKIHHHHHHMSRKDVVAGIRNEEGISTVLDLLKQSFGERFQTGQSFREQHAHTTTYLPAQLPDGVVFVESAEDVKTVVRTCAQHKVPMVPFGVGSSLEGQVNAAHGGISIDFTRMDKVLEVNAEDLDCTVQPGVTREALNTYLRDTGLFFPIDPGANASIGGMASTRASGTNAVRYGTMKDNVMALTVVTANGEEIRTAHRARKSSAGYDLTRLFVGAEGTLGVITSITLKLQGIPEKIGGGVCAFADVKSACDAVIMTIQMGIPVARIELLDAMQVRACNAYSNLSLPERPTLFLEFHGTEQTVALQAQQFAAIAEEYGAEDLRFTSDPQERAQLWKARHNAYWAGRALAPELAGLSTDVCVPISKLAECVAETQADIAETGLLAPIVGHVGDGNFHLLILFDDKDAENVDKVEAFMARLNERALAMDGTCTGEHGVGQGKMSYLEAELGGALDVMRQVKRGLDPDNLFNPGKIFRL”, for which the “soluble on expression in E. coli” value is “not soluble”.

Turning to “MGSDKIHHHHHHMPHSLHPLFQAIATAPTEQTLRLTVMDNISEYFGVQRWGIYLLDTNNNLASVEAKGVSDTFIEQYQRFGKAVDPVLKYVLENHAPAHEELVLPEGTWKQSELYQRCCSTHDHEHIMTGPLVGQGQLIGTINFARIGHIPAFNHLELASLGAVCTHFSARLAELRKPHSVSGQISNRLTSREIQIANLVAKGLTNAEIGAELWITHNSVKQALKRIFRKLEVSARTEMVAKLRDII”, the “soluble on expression in E. coli” value is “not soluble”.

Take “MQNPQNLIWIDLEMTGLDPDRDVIIEMATIVTDSDLNTLAEGPVIAIHQPEEILAGMDEWNTRQHGQSGLTQRVRESTVSMAEAEAQTLAFLEQWVPKRSSPICGNSICQDRRFLYRHMPRLEGYFHYRNLDVSTLKELAARWAPQVRESFKKGNTHLALDDIRESIAELRHYRDHFIKL”: the “soluble on expression in E. coli” value was “not soluble”.

Take “MSLRMIGKVLELLNCKETEREINRRKFSICDDVNFILNLPIGYLKDVISPLENYLSKHMTNNFSRLTRVVPNDYEDTQLHFSKFFLNLYSSAISEIPRFNILTSLVILDEYRMMPDKALIAAADELARNGINAIFSTSTPSVFFEEEIVSRFRNRRVVSISIVNEYGQAVEGRDCVKKGEGYYQCRGSYEVIELIEDFDIRDLDYEIIKGEEVFKVKEPFTLFVNSWEKALRLYRKLREERNTEVCLLNSSDECKVTITPKIMPTRFNVVSEISSLPTIVARSGIINDKDKIYVWIDRDNYDTVTESTLNLLSNIKVCLKHPFGCNGKMGYANKTVLKPNIDERLIKRLSEISHLMDRREFEKVTEVFSDFVTVDLFTDKEKITTVPPEFVYENKKKILYYGNSCVYTYFTDGEKCSKIVYNWLEGGGVSWLKRNLARAYKNYVEEEGKKKVFLGLKARDVEEWIEGHHHHHH”: the “soluble on expression in E. coli” value was “not soluble”.

In the case of “MGSDKIHHHHHHMPTLDPLSLRLFVSVAEAGTIAAAAEREHIAAAAVSKRISEIEATLGVALLRRTNKGVAPTAAGERLVVLAHRALHELDDIAVQMRDYASGVSGLIRLAANVSSVVQFLPREIQAFAAQHPRIQIQLEEKASAGVVKAVADNAVDIGIFTSVPHGYEVQTFPYHRDFLTLVVPGGHTLAQKQAVAFADTLDFEYVGLPPDTAISQQLTRAAHAHARPVNLRIQVTSYDAQCLMIAAGLGLGVMPHAVAQQQAANLGLATVALTDAWAERELLIAVRSLEALPVACRMLVAHLRGA”, the “soluble on expression in E. coli” value is “not soluble”.

“MGKKAHGGKMKPEIDENGTLLVPPPRTIANQDHFHRLNYLYQISAYQTRARQKARTDAHTPLARNYIKSMDLISKKTKTSLLPTIKRTICKKCHRLLWTPKKLEITSDGALSVMCGCGTVKRFNIGADPNYRTYSEREGNLLNS”: the “soluble on expression in E. coli” value is “soluble”.

With “MIIATAGHVDHGKTTLLQAITGVNADRLPEEKKRGMTIDLGYAYWPQPDGRVPGFIDVPGHEKFLSNMLAGVGGIDHALLVVACDDGVMAQTREHLAILQLTGNPMLTVALTKADRVDEARVDEVERQVKEVLREYGFAEAKLFITAATEGRGMDALREHLLQLPEREHASQHSFRLAIDRAFTVKGAGLVVTGTALSGEVKVGDSLWLTGVNKPMRVRALHAQNQPTETANAGQRIALNIAGDAEKEQINRGDWLLADVPPEPFTRVIVELQTHTPLTQWQPLHIHHAASHVTGRVSLLEDNLAELVFDTPLWLADNDRLVLRDISARNTLAGARVVMLNPPRRGKRKPEYLQWLASLARAQSDADALSVHLERGAVNLADFAWARQLNGEGMRELLQQPGYIQAGYSLLNAPVAARWQRKILDTLATYHEQHRDEPGPGRERLRRMALPMEDEALVLLLIEKMRESGDIHSHHGWLHLPDHKAGFSEEQQAIWQKAEPLFGDEPWWVRDLAKETGTDEQAMRLTLRQAAQQGIITAIVKDRYYRNDRIVEFANMIRDLDQECGSTCAADFRDRLGVGRKLAIQILEYFDRIGFTRRRGNDHLLRDALLFPEK”, the “soluble on expression in E. coli” value was “soluble”.
